From patent publication US20190194324A1 (Johns Hopkins, published 2019)

How the values were obtained:
[1] = molecular target: T1, Human α-syn PFF (human, UniProt P37840 1-140); assay: expression cloning screen in SH-SY5Y cells, streptavidin-AP staining
[2] = molecular target: α-syn-biotin PFF (biotin-labelled α-synuclein pre-formed fibrils) (mouse, UniProt O55042 1-140); assay: cell surface binding on LAG3-overexpressing SH-SY5Y cells, Scatchard analysis; 0% or 0.1% Triton X-100 (the legend marks both values only 'TX-100')
[3] = molecular target: T1, Human α-syn PFF; assay: expression cloning screen of 352 transmembrane proteins in SH-SY5Y cells
[4] = molecular target: T2, α-syn-biotin PFF (biotin-labelled α-synuclein pre-formed fibrils) (mouse, UniProt O55042 1-140); assay: alkaline phosphatase binding assay on cultured cortical neurons, WT minus LAG3-/-
[5] = molecular target: T2, α-syn-biotin PFF (biotin-labelled …); assay: cell surface binding assay on cells overexpressing the deletion mutant

B1: LAG3 (NM_002286) expressed in SH-SY5Y cells (Origene GFC-transfection array clone) (receptor)
chain: LQPGAEVPVVWAQEGAPAQLPCSPTIPLQDLSLLRRAGVTWQHQPDSGPPAAAPGHPLAPGPHPAAPSSWGPRPRRYTVLSVGPGGLRSGRLPLQPRVQLDERGRQRGDFSLWLRPARRADAGEYRAAVHLRDRALSCRLRLRLGQASMTASPPGSLRASDWVILNCSFSRPDRPASVHWFRNRGQGRVPVRESPHHHLAESFLFLPQVSPMDSGPWGCILTYRDGFNVSIMYNLTVLGLEPPTPLTVYAGAGSRVGLPCRLPAGVGTRSFLTAKWTPPGGGPDLLVTGDNGDFTLRLEDVSQAQAGTYTCHIHLQEQQLNATVTLAIITVTPKSFGSPGSLGKLLCEVTPVSGQERFVWSSLDTPSQRSFSGPWLEAQEAQLLSQPWQCQLYQGERLLGAAVYFTELSSPGAQRSGRAPGALPAGHLLLFLILGVLSLLLLVTGAFGFHLWRRQWRPRRFSALEQGIHPPQAQSKIEELEQEPEPEPEPEPEPEPEPEPEQL
notes: The clone of the screen is named by NM_002286
B1: binds [1].

B2: LAG3 overexpressed in transfected cells (SH-SY5Y; HEK293FT) (receptor)
chain: B1 chain
B2 showed a Kd [2] of 71 nM.

B3: APLP1 (NM_005166) expressed in SH-SY5Y cells (Origene GFC-transfection array clone) (receptor)
chain: SLAGGSPGAAEAPGSAQVAGLCGRLTLHRDLRTGRWEPDPQRSRRCLRDPQRVLEYCRQMYPELQIARVEQATQAIPMERWCGGSRSGSCAHPHHQVVPFRCLPGEFVSEALLVPEGCRFLHQERMDQCESSTRRHQEAQEACSSQGLILHGSGMLLPCGSDRFRGVEYVCCPPPGTPDPSGTAVGDPSTRSWPPGSRVEGAEDEEEEESFPQPVDDYFVEPPQAEEEEETVPPPSSHTLAVVGKVTPTPRPTDGVDIYFGMPGEISEHEGFLRAKMDLEERRMRQINEVMREWAMADNQSKNLPKADRQALNEHFQSILQTLEEQVSGERQRLVETHATRVIALINDQRRAALEGFLAALQADPPQAERVLLALRRYLRAEQKEQRHTLRHYQHVAAVDPEKAQQMRFQVHTHLQVIEERVNQSLGLLDQNPHLAQELRPQIQELLHSEHLGPSELEAPAPGGSSEDKGGLQPPDSKDDTPMTLPKGSTEQDAASPEKEKMNPLEQYERKVNASVPRGFPFHSSEIQRDELAPAGTGVSREAVSGLLIMGAGGGSLIVLSMLLLRRKKPYGAISHGVVEVDPMLTLEEQQLRELQRHGYENPTYRFLEERP
notes: whole, on cells; also called amyloid beta (A4) precursor-like protein 1
B3: binds [3].

B4: mouse LAG3 (receptor)
chain: GPGKELPVVWAQEGAPVHLPCSLKSPNLDPNFLRRGGVIWQHQPDSGQPTPIPALDLHQGMPSPRQPAPGRYTVLSVAPGGLRSGRQPLHPHVQLEERGLQRGDFSLWLRPALRTDAGEYHATVRLPNRALSCSLRLRVGQASMIASPSGVLKLSDWVLLNCSFSRPDRPVSVHWFQGQNRVPVYNSPRHFLAETFLLLPQVSPLDSGTWGCVLTYRDGFNVSITYNLKVLGLEPVAPLTVYAAEGSRVELPCHLPPGVGTPSLLIAKWTPPGGGPELPVAGKSGNFTLHLEAVGLAQAGTYTCSIHLQGQQLNATVTLAVITVTPKSFGLPGSRGKLLCEVTPASGKERFVWRPLNNLSRSCPGPVLEIQEARLLAERWQCQLYEGQRLLGATVYAAESSSGAHSARRISGDLKGGHLVLVLILGALSLFLLVAGAFGFHWWRKQLLLRRFSALEHGIQPFPAQRKIEELERELETEMGQEPEPEPEPQLEPEPRQL
notes: whole, on cells; In the in vivo co-IP the protein came from brain stem lysates of mice; also called LAG3 full-length (FL); neuronal LAG3
B4 gave a Kd [4] of 103 nM.

B5: mouse LAG3 deletion mutant ΔD1 (receptor)
chain: IASPSGVLKLSDWVLLNCSFSRPDRPVSVHWFQGQNRVPVYNSPRHFLAETFLLLPQVSPLDSGTWGCVLTYRDGFNVSITYNLKVLGLEPVAPLTVYAAEGSRVELPCHLPPGVGTPSLLIAKWTPPGGGPELPVAGKSGNFTLHLEAVGLAQAGTYTCSIHLQGQQLNATVTLAVITVTPKSFGLPGSRGKLLCEVTPASGKERFVWRPLNNLSRSCPGPVLEIQEARLLAERWQCQLYEGQRLLGATVYAAESSSGAHSARRISGDLKGGHLVLVLILGALSLFLLVAGAFGFHWWRKQLLLRRFSALEHGIQPFPAQRKIEELERELETEMGQEPEPEPEPQLEPEPRQL
notes: whole, on cells; Expressed in HEK293FT cells; also called D1 domain deletion mutant
B5: no binding [5].
